Values quoted from earlier work in publication PMC7308888, “Development of a cell-free split-luciferase biochemical assay as a tool for screening for inhibitors of challenging protein-protein interaction targets” (Wellcome Open Research, 2020).

Target: RAF (Homo sapiens) (UniProt P04049)

Substance: RAS (from UniProt P01116)
- Kd: 20 nM
